Experimental data reported in patent US20140274782A1, “AFFINITY REAGENTS AND METHODS FOR DETECTION, PURIFICATION, AND PROTEOMIC ANALYSIS OF METHYLATED PROTEINS” (The Board of Trustees of the Leland Stanford Junior …, priority 2013, published 2014).

Key:
3×MBT domain of L3MBTL1 = test: Triple SILAC pull-down, 3xMBT/3xMBTD355N ratio (cytoplasmic, nuclear and chromatin fractions of 293T cells); format: binding, human; settings: for 3xMBT/D355N UNC Heavy: experiment with UNC0638 in heavy SILAC media; for 3xMBT/D355N UNC Light: experiment with UNC0638 in light SILAC media;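 on all read-outs here: proteins quantified with MaxQuant, requiring at least two unique peptides and quantification in both label directions, normalized to the mean of proteins from a digested loading control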
G9a and GLP = target: T1, G9a and GLP (Homo sapiens, UniProt Q96KQ7+Q9H9B1); test: Triple SILAC pull-down after UNC0638 treatment of 293T cells, DMSO/UNC0638 ratio of protein captured by 3×MBT; format: cell-based; settings: for Relative to UNC0638 UNC Heavy: UNC0638 in heavy SILAC media; for Relative to UNC0638 UNC Light: UNC0638 in light SILAC media; for Relative to UNC0638 Average: average of UNC Light and UNC Heavy experiments; for Candidate G9a/GLP target: reduced association with 3xMBT after UNC0638 treatment;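 on all read-outs here: mass spectrometry (Q-Exactive) SILAC quantitation, DMSO/UNC0638 ratio computed after subtracting 3×MBTD355N mutant pull-down background, only proteins with at least twofold 3×MBT over mutant signal considered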
T1 construct: endogenous in cells; host or cells: HEK 293T
T1 sequence (Q96KQ7 2-1210 limits assumed): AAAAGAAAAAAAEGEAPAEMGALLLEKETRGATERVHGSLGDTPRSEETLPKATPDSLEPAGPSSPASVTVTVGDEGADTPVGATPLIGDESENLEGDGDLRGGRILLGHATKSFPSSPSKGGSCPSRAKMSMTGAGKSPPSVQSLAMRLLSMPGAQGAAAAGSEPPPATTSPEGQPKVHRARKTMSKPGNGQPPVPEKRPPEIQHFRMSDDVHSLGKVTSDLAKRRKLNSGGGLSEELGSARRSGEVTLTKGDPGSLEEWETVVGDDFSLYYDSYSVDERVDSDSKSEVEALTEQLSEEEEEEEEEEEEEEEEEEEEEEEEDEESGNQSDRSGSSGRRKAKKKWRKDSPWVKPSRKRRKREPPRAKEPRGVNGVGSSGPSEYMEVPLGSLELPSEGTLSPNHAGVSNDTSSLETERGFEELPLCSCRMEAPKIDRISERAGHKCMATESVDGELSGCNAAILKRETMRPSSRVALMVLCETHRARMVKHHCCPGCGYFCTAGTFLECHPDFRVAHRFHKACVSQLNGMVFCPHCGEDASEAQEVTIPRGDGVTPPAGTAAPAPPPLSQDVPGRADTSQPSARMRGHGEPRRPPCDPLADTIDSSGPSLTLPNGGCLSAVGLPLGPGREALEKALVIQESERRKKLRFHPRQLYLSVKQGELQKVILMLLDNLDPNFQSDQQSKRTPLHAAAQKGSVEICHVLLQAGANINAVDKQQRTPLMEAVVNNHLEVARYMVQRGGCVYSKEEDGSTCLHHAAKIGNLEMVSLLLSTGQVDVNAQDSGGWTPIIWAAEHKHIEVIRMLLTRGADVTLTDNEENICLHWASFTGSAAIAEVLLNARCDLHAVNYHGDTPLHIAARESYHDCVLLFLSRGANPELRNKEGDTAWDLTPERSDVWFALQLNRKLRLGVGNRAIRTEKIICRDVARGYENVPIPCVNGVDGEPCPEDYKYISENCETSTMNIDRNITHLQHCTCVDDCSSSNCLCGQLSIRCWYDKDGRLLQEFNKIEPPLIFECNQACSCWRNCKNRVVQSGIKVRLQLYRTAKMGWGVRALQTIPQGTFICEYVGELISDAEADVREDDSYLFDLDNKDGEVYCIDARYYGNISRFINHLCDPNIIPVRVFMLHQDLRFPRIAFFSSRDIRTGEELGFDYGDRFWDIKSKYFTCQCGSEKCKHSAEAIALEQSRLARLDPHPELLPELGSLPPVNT
T1 sequence (Q9H9B1 2-1298 limits assumed): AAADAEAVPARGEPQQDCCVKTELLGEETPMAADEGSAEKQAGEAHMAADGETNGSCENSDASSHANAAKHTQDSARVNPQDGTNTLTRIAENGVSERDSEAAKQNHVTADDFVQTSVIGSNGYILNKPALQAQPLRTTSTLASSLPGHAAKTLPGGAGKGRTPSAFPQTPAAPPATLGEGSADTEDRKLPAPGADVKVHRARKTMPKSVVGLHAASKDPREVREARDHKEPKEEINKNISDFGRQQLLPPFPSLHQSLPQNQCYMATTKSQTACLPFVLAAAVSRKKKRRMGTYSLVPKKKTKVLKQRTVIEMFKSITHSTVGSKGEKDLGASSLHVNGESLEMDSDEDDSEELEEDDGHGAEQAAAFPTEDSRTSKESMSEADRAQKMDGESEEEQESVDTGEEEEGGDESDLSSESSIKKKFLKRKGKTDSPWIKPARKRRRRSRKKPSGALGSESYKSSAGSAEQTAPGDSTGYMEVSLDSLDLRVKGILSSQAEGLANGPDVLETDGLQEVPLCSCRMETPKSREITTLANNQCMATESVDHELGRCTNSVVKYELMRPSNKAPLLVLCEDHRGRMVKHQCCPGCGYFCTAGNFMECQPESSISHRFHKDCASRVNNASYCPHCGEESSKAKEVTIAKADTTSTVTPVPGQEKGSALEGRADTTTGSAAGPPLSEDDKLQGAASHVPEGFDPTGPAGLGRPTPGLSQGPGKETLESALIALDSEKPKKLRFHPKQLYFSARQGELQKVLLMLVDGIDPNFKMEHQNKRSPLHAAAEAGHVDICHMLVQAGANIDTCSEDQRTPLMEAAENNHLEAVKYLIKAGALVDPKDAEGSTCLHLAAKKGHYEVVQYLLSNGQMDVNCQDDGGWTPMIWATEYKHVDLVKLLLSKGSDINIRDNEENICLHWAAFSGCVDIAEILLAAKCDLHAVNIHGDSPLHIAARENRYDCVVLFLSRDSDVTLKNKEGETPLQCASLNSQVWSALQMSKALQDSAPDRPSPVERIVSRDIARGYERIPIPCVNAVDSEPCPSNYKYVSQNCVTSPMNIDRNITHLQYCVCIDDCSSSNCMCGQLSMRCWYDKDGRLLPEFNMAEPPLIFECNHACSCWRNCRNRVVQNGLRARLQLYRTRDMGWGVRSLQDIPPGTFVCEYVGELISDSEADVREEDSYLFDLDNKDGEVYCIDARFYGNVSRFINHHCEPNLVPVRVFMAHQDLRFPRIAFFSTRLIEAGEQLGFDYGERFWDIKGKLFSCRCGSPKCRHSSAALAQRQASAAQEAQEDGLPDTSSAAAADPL

[1] = SILAC ratio 3xMBT vs 3xMBTD355N pull-down, 293T cells, all values in log base 2
[2] = SILAC ratio DMSO relative to UNC0638, pull-down with 3xMBT, all values in log base 2
[3] = SILAC ratio, pull-down 3xMBT vs 3xMBTD355N
[4] = SILAC ratio DMSO/UNC0638 of protein pulled down with 3xMBT

| Substance | Relative to UNC0638 UNC Heavy (G9a and GLP; [2]) | Relative to UNC0638 UNC Light (G9a and GLP; [2]) | Relative to UNC0638 Average (G9a and GLP; all values in log base 2) | Relative to UNC0638 UNC Heavy (G9a and GLP; [4]) | Relative to UNC0638 UNC Light (G9a and GLP; [4]) | Relative to UNC0638 Average (G9a and GLP) | Protein Ratios DMSO/UNC0638 (G9a and GLP; SILAC ratio of protein captured by 3xMBT, 293T cells treated 24 hours with UNC0638 at 2.5 μM or DMSO) | Candidate G9a/GLP target (G9a and GLP) | 3xMBT/D355N UNC Heavy (3×MBT domain of L3MBTL1; [1]) | 3xMBT/D355N UNC Light (3×MBT domain of L3MBTL1; [1]) | 3xMBT/D355N UNC Heavy (3×MBT domain of L3MBTL1; [3]) | 3xMBT/D355N UNC Light (3×MBT domain of L3MBTL1; [3]) | Protein Ratios 3xMBT/D355N (3×MBT domain of L3MBTL1; SILAC ratio, pull-down by 3xMBT vs 3xMBTD355N, 293T cells) |
| --- | --- | --- | --- | --- | --- | --- | --- | --- | --- | --- | --- | --- | --- |
| PPP1CA | 1.15 log base 2 | −1.83 log base 2 | −0.34 log base 2 |  |  |  |  |  | 1.51 log base 2 | 0.12 log base 2 |  |  |  |
| Clathrin heavy chain 1 |  |  |  |  |  |  | 1.4 |  |  |  |  |  | 6.0 |
| GTF3C1 |  |  |  | 1.93 log base 2 | −0.06 log base 2 | 0.93 log base 2 |  |  |  |  | 0.63 log base 2 | 2.08 log base 2 |  |
| RAD50 | 0.15 log base 2 | −0.14 log base 2 | 0.01 log base 2 |  |  |  |  |  | 2.20 log base 2 | 2.08 log base 2 |  |  |  |
| KHDRBS1 |  |  |  | 0.54 log base 2 | 0.19 log base 2 | 0.37 log base 2 |  |  |  |  | 2.03 log base 2 | 2.82 log base 2 |  |
| ZFR |  |  |  | 0.09 log base 2 | 0.13 log base 2 | 0.11 log base 2 |  |  |  |  | 2.89 log base 2 | 3.14 log base 2 |  |
| MLLT4 | 0.16 log base 2 | 0.04 log base 2 | 0.10 log base 2 |  |  |  |  |  | 3.31 log base 2 | 2.39 log base 2 |  |  |  |
| NSUN2 |  |  |  | 4.51 log base 2 | 0.18 log base 2 | 2.35 log base 2 |  | √✓ |  |  | 0.25 log base 2 | 2.00 log base 2 |  |
| SMARCA5 |  |  |  | 0.47 log base 2 | 0.32 log base 2 | 0.39 log base 2 |  | ✓ |  |  | 2.49 log base 2 | 2.61 log base 2 |  |

Continued, in another order:

| Relative to UNC0638 UNC Heavy (G9a and GLP; [2]) | Relative to UNC0638 UNC Light (G9a and GLP; [2]) | Relative to UNC0638 Average (G9a and GLP; all values in log base 2) | Relative to UNC0638 UNC Heavy (G9a and GLP; [4]) | Relative to UNC0638 UNC Light (G9a and GLP; [4]) | Relative to UNC0638 Average (G9a and GLP) | Protein Ratios DMSO/UNC0638 (G9a and GLP; SILAC ratio of protein captured by 3xMBT, 293T cells treated 24 hours with UNC0638 at 2.5 μM or DMSO) | Candidate G9a/GLP target (G9a and GLP) | Substance | 3xMBT/D355N UNC Heavy (3×MBT domain of L3MBTL1; [1]) | 3xMBT/D355N UNC Light (3×MBT domain of L3MBTL1; [1]) | 3xMBT/D355N UNC Heavy (3×MBT domain of L3MBTL1; [3]) | 3xMBT/D355N UNC Light (3×MBT domain of L3MBTL1; [3]) | Protein Ratios 3xMBT/D355N (3×MBT domain of L3MBTL1; SILAC ratio, pull-down by 3xMBT vs 3xMBTD355N, 293T cells) |
| --- | --- | --- | --- | --- | --- | --- | --- | --- | --- | --- | --- | --- | --- |
|  |  |  | 0.57 log base 2 | −0.05 log base 2 | 0.26 log base 2 |  |  | USP10 |  |  | 2.00 log base 2 | 2.13 log base 2 |  |
| 0.21 log base 2 | −0.01 log base 2 | 0.10 log base 2 |  |  |  |  |  | CSNK2B | 2.83 log base 2 | 2.65 log base 2 |  |  |  |
|  |  |  | 0.32 log base 2 | 0.26 log base 2 | 0.29 log base 2 |  |  | RFC4 |  |  | 1.95 log base 2 | 1.80 log base 2 |  |
|  |  |  | 0.04 log base 2 | 0.20 log base 2 | 0.12 log base 2 |  |  | MCTS1 |  |  | 2.76 log base 2 | 2.56 log base 2 |  |
|  |  |  | 0.58 log base 2 | −0.12 log base 2 | 0.23 log base 2 |  |  | YWHAE |  |  | 1.86 log base 2 | 2.52 log base 2 |  |
|  |  |  | 0.42 log base 2 | −0.18 log base 2 | 0.12 log base 2 |  |  | TOP2A |  |  | 2.56 log base 2 | 2.96 log base 2 |  |
|  |  |  | 0.36 log base 2 | 0.33 log base 2 | 0.34 log base 2 |  |  | EFTUD2 |  |  | 1.98 log base 2 | 2.07 log base 2 |  |
| 0.63 log base 2 | −0.72 log base 2 | −0.04 log base 2 |  |  |  |  |  | MAP4K5 | 1.69 log base 2 | 0.87 log base 2 |  |  |  |
